Consider one molecule from US20220332846A1 (Innovent, published 2022).

The experiment has as its target T1, PCSK-9 in human serum samples (human, UniProt Q8NBP7 31-692, limits assumed).
T1 construct: Endogenous PCSK-9 in clinical serum of human subjects, detected with a goat anti-human PCSK-9 polyclonal antibody; also called proprotein convertase subtilisin/kexin type 9; serum free PCSK-9
The experiment in a line: ELISA, ADI-10087 coated on a microplate, serum PCSK-9 captured, detected with goat anti-human PCSK-9 polyclonal antibody. As to the method:
A corresponding TMB substrate of HRP enzyme was then added, the color intensity of the TMB substrate was proportional to the content of PCSK-9, and the concentration of PCSK-9 in clinical serum could be detected by OD values at 450 nm or 620 nm using a microplate reader.
In general terms: In an ELISA, binding on a coated surface is turned into a signal by an enzyme label.

T1 sequence (Q8NBP7 31-692 limits assumed): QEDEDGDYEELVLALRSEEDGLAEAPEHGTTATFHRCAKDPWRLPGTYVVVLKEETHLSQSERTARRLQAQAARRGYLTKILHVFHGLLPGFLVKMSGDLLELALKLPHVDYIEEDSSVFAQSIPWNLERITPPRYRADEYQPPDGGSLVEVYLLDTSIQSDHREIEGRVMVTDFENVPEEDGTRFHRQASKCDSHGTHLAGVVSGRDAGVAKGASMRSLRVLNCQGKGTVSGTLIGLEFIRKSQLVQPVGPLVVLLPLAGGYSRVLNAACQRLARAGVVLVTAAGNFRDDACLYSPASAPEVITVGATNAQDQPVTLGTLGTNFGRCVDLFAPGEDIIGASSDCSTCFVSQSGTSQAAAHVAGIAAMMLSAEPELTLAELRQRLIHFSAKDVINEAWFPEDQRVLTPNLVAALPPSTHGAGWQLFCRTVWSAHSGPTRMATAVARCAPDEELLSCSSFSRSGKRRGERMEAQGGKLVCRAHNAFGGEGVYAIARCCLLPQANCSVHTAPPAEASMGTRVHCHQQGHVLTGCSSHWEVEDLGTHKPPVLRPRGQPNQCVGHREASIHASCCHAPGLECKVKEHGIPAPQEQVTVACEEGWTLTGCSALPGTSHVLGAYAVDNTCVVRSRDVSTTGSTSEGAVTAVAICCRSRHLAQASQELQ

B1: ADI-10087 (antibody, V domains shown)
VH: QLQLQESGPGLVKPSETLSLTCTVSGGSISSASYYWSWIRQPPGKGLEWIGSINYRGSTYYNPSLKSRVTISVDTSKNQFSLKLSSVTAADTAVYYCARENSGVVPAAGPNWFGPWGQGTLVTVSS
VL: EIVLTQSPATLSLSPGERATLSCRASQSVSSYLAWYQQKPGQAPRLLIYDASNRATGIPARFSGSGSGTDFTLTISSLEPEDFAVYYCQQRRNWFTFGGGTKVEIKR
modifications: In Example 10 the antibody carries a ruthenium label, and in Example 9 biotin and ruthenium labels. The labelling sites are not stated and the letters do not carry them.
notes: The antibody was obtained from PCT/CN2017/118050; also called anti-PCSK9 antibody; test drug
Take B1: the binding result is recorded as “binds”.
